According to patent US20220002427A1 (ENGMAB SARL, published 2022):
Values joined by “and” are separate entries in the source; they are usually repeats but may differ in a detail not shown here. Identical values can stand only once.

Assays:
human BCMA on cells [1] = target: T1, human BCMA on cells (human, UniProt Q02223 1-184); experiment: flow cytometry on RPMI-8226 multiple myeloma cells, PE anti-human Fc F(ab')2 detection; asterisk: extrapolated by Prism
T1 construct: whole, on cells; also called huBCMA on HEK cells; HEK-huBCMA cells
T1 sequence (looked up): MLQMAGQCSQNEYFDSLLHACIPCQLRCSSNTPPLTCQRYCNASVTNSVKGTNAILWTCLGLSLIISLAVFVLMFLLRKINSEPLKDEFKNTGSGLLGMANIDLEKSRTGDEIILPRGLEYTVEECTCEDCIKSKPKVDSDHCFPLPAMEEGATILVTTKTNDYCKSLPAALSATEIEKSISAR
Experimental: (§1) Briefly, cultured cells are harvested, counted and cell viability was evaluated using ViCell. Viable cells are then adjusted to 2×10⁶ cells per ml in BSA-containing FACS Stain Buffer (BD Biosciences). 100 μl of this cell suspension were further aliquoted per well into a round-bottom 96-well plate and incubated with 30 μl of the anti-BCMA antibodies or corresponding IgG control for 30 min at 4° c. All Anti-BCMA/anti-CD3 TCB antibodies (and TCB controls) were titrated and analyzed in final concentration range between 1-300 nM. Cells were then centrifuged (5 min, 350×g), washed with 120 μl/well FACS Stain Buffer (BD Biosciences), resuspended and incubated for an additional 30 min at 4° C. with fluorochrome-conjugated PE-conjugated AffiniPure F(ab′)2 Fragment goat anti-human IgG Fc Fragment Specific (Jackson Immuno Research Lab; 109-116-170). Cells were then washed twice with Stain Buffer (BD Biosciences), fixed using 100 ul BD Fixation buffer per well (#BD Biosciences, 554655) at 4° C. for 20 min, resuspended in 120 μl FACS buffer and analyzed using BD FACS CantoII.

human BCMA on cells [2] = target: T1, human BCMA on cells; experiment: cell-based or functional assay
human BCMA on cells [3] = target: T1, human BCMA on cells; experiment: flow cytometry on H929 multiple myeloma cells, PE anti-human Fc F(ab')2 detection; estimated EC50
Experimental: as §1

human BCMA on cells [4] = target: T1, human BCMA on cells; experiment: cell-based or functional assay; remark: listed apart in the source
human BCMA on cells [5] = target: T1, human BCMA on cells; experiment: cell-based or functional assay; remark: listed apart in the source
human BCMA on cells [6] = target: T1, human BCMA on cells; experiment: cell-based or functional assay; remark: listed apart in the source
human BCMA on cells [7] = target: T1, human BCMA on cells; experiment: cell-based or functional assay; remark: listed apart in the source
human BCMA on cells [8] = target: T1, human BCMA on cells; experiment: flow cytometry on L363 multiple myeloma cells, PE anti-human Fc F(ab')2 detection; estimated EC50
Experimental: as §1

human BCMA on cells [9] = target: T1, human BCMA on cells; experiment: cell-based or functional assay; remark: listed apart in the source

B1: 83A10-TCBcv (bispecific antibody, human IgG1, kappa, L234A L235A)
heavy 1: not shown
heavy 2: not shown
light 1: not shown
light 2: EVQLLESGGGLVQPGGSLRLSCAASGFTFSTYAMNWVRQAPGKGLEWVSRIRSKYNNYATYYADSVKGRFTISRDDSKNTLYLQMNSLRAEDTAVYYCVRHGNFGNSYVSWFAYWGQGTLVTVSSASVAAPSVFIFPPSDEQLKSGTASVVCLLNNFYPREAKVQWKVDNALQSGNSQESVTEQDSKDSTYSLSSTLTLSKADYEKHKVYACEVTHQGLSSPVTKSFNRGEC
notes: also called anti-BCMA/anti-CD3 T cell bispecific antibody 83A10-TCBcv
- EC50 (human BCMA on cells [1]): > 300 nM and ~27200 µg/mL
- EC50 of redirected T-cell killing of RPMI-8226 cells (LDH release), Donor 2 (human BCMA on cells [2]): 0.621 nM
- EC50 of redirected T-cell killing of RPMI-8226 cells (LDH release), Donor 3 (human BCMA on cells [2]): 0.229 nM
- EC50 of redirected T-cell killing of RPMI-8226 cells (LDH release), Donor 4 (human BCMA on cells [2]): 0.035 nM
- EC50 of redirected T-cell killing of RPMI-8226 cells (LDH release), Donor 5 (human BCMA on cells [2]): 0.0649 nM
- EC50 (human BCMA on cells [3]): 12 nM and 1.73 µg/mL
- EC50 of redirected T-cell killing of H929 cells (LDH release), Donor 1 (human BCMA on cells [4]): 0.0039 nM
- EC50 of redirected T-cell killing of H929 cells (LDH release), Donor 3 (human BCMA on cells [4]): 0.0085 nM
- EC50 of redirected T-cell killing of H929 cells (LDH release), Donor 4 (human BCMA on cells [4]): 0.005 nM
- EC50 of redirected T-cell killing of H929 cells (LDH release), Donor 5 (human BCMA on cells [4]): 0.0043 nM
- EC50 of redirected T-cell killing of H929 cells (LDH release), Donor 6 (human BCMA on cells [4]): 0.0015 nM
- EC50 of Granzyme B secretion, PBMC plus RPMI-8226 cells (CBA) (human BCMA on cells [5]): 0.34 nM
- EC50 of IL-10 secretion, PBMC plus RPMI-8226 cells (CBA) (human BCMA on cells [5]): 0.3 nM
- EC50 of TNF-α secretion, PBMC plus RPMI-8226 cells (CBA) (human BCMA on cells [5]): 0.52 nM
- EC50 of redirected T-cell killing of L363 cells (LDH release), Donor 1 (human BCMA on cells [6]): 0.0168 nM
- EC50 of redirected T-cell killing of L363 cells (LDH release), Donor 2 (human BCMA on cells [6]): 0.0478 nM
- EC50 of redirected T-cell killing of L363 cells (LDH release), Donor 3 (human BCMA on cells [6]): 0.0284 nM
- EC50 of redirected T-cell killing of L363 cells (LDH release), Donor 4 (human BCMA on cells [6]): 0.0126 nM
- EC50 of redirected T-cell killing of L363 cells (LDH release), Donor 5 (human BCMA on cells [6]): 0.039 nM
- Annexin-V positive JJN-3 cells (%) at 0.1 pM TCB, Experiment 2 (human BCMA on cells [7]): 13.1%
- Annexin-V positive JJN-3 cells (%) at 1 pM TCB, Experiment 1 (human BCMA on cells [7]): 11.4%
- Annexin-V positive JJN-3 cells (%) at 1 pM TCB, Experiment 2 (human BCMA on cells [7]): 14.3%
- Annexin-V positive JJN-3 cells (%) at 10 pM TCB, Experiment 1 (human BCMA on cells [7]): 11.1%
- Annexin-V positive JJN-3 cells (%) at 10 pM TCB, Experiment 2 (human BCMA on cells [7]): 15.9%
- Annexin-V positive JJN-3 cells (%) at 100 pM TCB, Experiment 1 (human BCMA on cells [7]): 9.12%
- Annexin-V positive JJN-3 cells (%) at 100 pM TCB, Experiment 2 (human BCMA on cells [7]): 16.5%
- Annexin-V positive JJN-3 cells (%) at 1000 pM TCB, Experiment 1 (human BCMA on cells [7]): 10.2%
- Annexin-V positive JJN-3 cells (%) at 1000 pM TCB, Experiment 2 (human BCMA on cells [7]): 17.5%
- Annexin-V positive JJN-3 cells (%) at 10000 pM TCB, Experiment 1 (human BCMA on cells [7]): 16.8%
- Annexin-V positive JJN-3 cells (%) at 10000 pM TCB, Experiment 2 (human BCMA on cells [7]): 22.9%
- EC50 (human BCMA on cells [8]): 17.4 nM and 2.51 µg/mL
- Lysis of JJN-3 cells (%) at 0.1 pM TCB, Experiment 2 (human BCMA on cells [9]): 22.3%
- Lysis of JJN-3 cells (%) at 1 pM TCB, Experiment 1 (human BCMA on cells [9]): 24.4%
- Lysis of JJN-3 cells (%) at 1 pM TCB, Experiment 2 (human BCMA on cells [9]): -1.88%
- Lysis of JJN-3 cells (%) at 10 pM TCB, Experiment 1 (human BCMA on cells [9]): 41.9%
- Lysis of JJN-3 cells (%) at 10 pM TCB, Experiment 2 (human BCMA on cells [9]): 39.6%
- Lysis of JJN-3 cells (%) at 100 pM TCB, Experiment 1 (human BCMA on cells [9]): 18.4%
- Lysis of JJN-3 cells (%) at 100 pM TCB, Experiment 2 (human BCMA on cells [9]): 20.1%
- Lysis of JJN-3 cells (%) at 1000 pM TCB, Experiment 1 (human BCMA on cells [9]): 26.7%
- Lysis of JJN-3 cells (%) at 1000 pM TCB, Experiment 2 (human BCMA on cells [9]): 25.3%
- Lysis of JJN-3 cells (%) at 10000 pM TCB, Experiment 1 (human BCMA on cells [9]): 70.3%
- Lysis of JJN-3 cells (%) at 10000 pM TCB, Experiment 2 (human BCMA on cells [9]): 51.2%
